From paper PMC6995573, “Critical Factors in Human Antizymes that Determine the Differential Binding, Inhibition, and Degradation of Human Ornithine Decarboxylase” (Biomolecules, 2019)
Read-outs that look alike come from different tables or passages of the source. Values belong to the binder of their own block, whether it stands above or below them.

Key:
[1] = molecular target: T1, Human ornithine decarboxylase (human, UniProt P11926 2-421); assay: cell-based or functional assay
T1 sequence: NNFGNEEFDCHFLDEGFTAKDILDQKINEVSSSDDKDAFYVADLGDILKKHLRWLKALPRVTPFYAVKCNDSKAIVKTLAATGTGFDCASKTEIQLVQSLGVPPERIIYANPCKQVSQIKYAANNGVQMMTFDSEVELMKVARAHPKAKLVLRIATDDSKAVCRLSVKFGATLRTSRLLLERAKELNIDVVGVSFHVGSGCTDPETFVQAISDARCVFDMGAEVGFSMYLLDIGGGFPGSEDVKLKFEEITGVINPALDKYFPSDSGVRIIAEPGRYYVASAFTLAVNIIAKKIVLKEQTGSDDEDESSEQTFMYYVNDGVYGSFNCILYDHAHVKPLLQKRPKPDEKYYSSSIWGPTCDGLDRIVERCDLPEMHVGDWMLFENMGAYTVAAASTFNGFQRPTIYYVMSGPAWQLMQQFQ

[2] = molecular target: T1, Human ornithine decarboxylase; assay: AUC; sedimentation velocity, 20 °C, 30 mM Tris-HCl pH 7.4, 25 mM NaCl; ODC fixed at 0.3 mg/mL, AZ 0.02-0.19 mg/mL (AZ/ODC molar ratio 0.25 to 3); all data sets fitted to the AB hetero-association model in SEDPHAT; conditions: both partners purified
[3] = molecular target: T1, Human ornithine decarboxylase; assay: as above; conditions: both partners purified; remark: listed apart in the source
[4] = molecular target: T1, Human ornithine decarboxylase; assay: cell-based or functional assay; remark: listed apart in the source
[5] = molecular target: T1, Human ornithine decarboxylase; assay: cell-based or functional assay; remark: listed apart in the source

B1: AZ_(95–228) (domain or fragment)
chain: not shown
notes: also called C-terminal domain of AZ1
IC50 of inhibition of ODC enzyme activity by AZ [1]: 160 nM
Kd [2]: 1150 ± 10 nM

B2: AZ_(95–228)_E161A (domain or fragment)
chain: not shown
IC50 of inhibition of ODC enzyme activity by AZ [1]: 250 nM
Kd [2]: 1110 ± 10 nM

B4: AZ_(95–228)_K178A (domain or fragment)
chain: not shown
IC50 of inhibition of ODC enzyme activity by AZ [1]: 310 nM
Kd [2]: 3030 ± 20 nM

B5: AZ_(95–228)_K153A (domain or fragment)
chain: not shown
IC50 of inhibition of ODC enzyme activity by AZ [1]: 400 nM
Kd [2]: 1210 ± 10 nM

B6: AZ_(95–228)_E164A (domain or fragment)
chain: not shown
IC50 of inhibition of ODC enzyme activity by AZ [1]: 300 nM
Kd [2]: 1680 ± 10 nM

B7: AZ_(95–228)_E142A/H171A/K178A (domain or fragment)
chain: not shown
notes: also called non-α1 mutant
Kd [2]: 11500 ± 600 nM

B13: AZ_(95–228)_H171A (domain or fragment)
chain: not shown
IC50 of inhibition of ODC enzyme activity by AZ [1]: 270 nM
Kd [2]: 2030 ± 20 nM

B14: AZ1_D124S/E150Q/Q166K/N179D (natural protein)
chain: not shown
notes: antizyme 1 (AZ1), human; also called AZ1_4M
Kd [3]: 950 ± 30 nM
IC50 of inhibition of ODC enzyme activity by AZ [4]: 550 nM

B17: AZ3_WT (natural protein, human, UniProt Q9UMX2 1-235, looked up)
chain: MPCKRCRPSVYSLSYIKRGKTRNYLYPIWSPYAYYLYCYKYRITLREKMLPRCYKSITYKEEEDLTLQPRSCLQCSESLVGLQEGKSTEQGNHDQLKELYSAGNLTVLATDPLLHQDPVQLDFHFRLTSQTSAHWHGLLCDRRLFLDIPYQALDQGNRESLTATLEYVEEKTNVDSVFVNFQNDRNDRGALLRAFSYMGFEVVRPDHPALPPLDNVIFMVYPLERDVGHLPSEPP
notes: antizyme 3 (AZ3), human; also called antizyme 3
Kd [3]: 1520 ± 10 nM
IC50 of inhibition of ODC enzyme activity by AZ [5]: 610 nM

Next, values leading:

Kd [2]: 12400 ± 700 nM
B3: AZ_(95–228)_E142A/K153A/D154A/E161A/E164A/E165A/H171A/K178A (domain or fragment)
chain: not shown
notes: also called hybrid octuple mutant

IC50 of inhibition of ODC enzyme activity by AZ [1]: 300 nM
Kd [2]: 1730 ± 20 nM
B8: AZ_(95–228)_E165A (domain or fragment)
chain: not shown

IC50 of inhibition of ODC enzyme activity by AZ [1]: 4130 nM
Kd [2]: 6580 ± 20 nM
B9: AZ_(95–228)_K153A/E164A/E165A (domain or fragment)
chain: not shown

IC50 of inhibition of ODC enzyme activity by AZ [1]: 270 nM
Kd [2]: 1700 ± 20 nM
B10: AZ_(95–228)_D154A (domain or fragment)
chain: not shown

Kd [2]: 6810 ± 60 nM
B11: AZ_(95–228)_K153A/D154A/E161A/E164A/E165A (domain or fragment)
chain: not shown

IC50 of inhibition of ODC enzyme activity by AZ [1]: 310 nM
Kd [2]: 2200 ± 20 nM
B12: AZ_(95–228)_E142A (domain or fragment)
chain: not shown

Kd [3]: 220 ± 10 nM
IC50 of inhibition of ODC enzyme activity by AZ [4]: 230 nM
B15: AZ1_WT (natural protein)
chain: not shown
notes: antizyme 1 (AZ1), human; also called antizyme 1

Kd [3]: 1780 ± 20 nM
IC50 of inhibition of ODC enzyme activity by AZ [4]: 490 nM
B16: AZ1_D124S/E150Q/Q166K/H171S/N179D (natural protein)
chain: not shown
notes: antizyme 1 (AZ1), human; also called AZ1_5M; AZ1_D124S/E150Q/Q166K/N179D/H171S
